The values below come from US20100130424A1 (Janssen / Centocor, published 2010).

Read-outs that look alike come from different tables or passages of the source. No end group written: not given here. A value given as a limit tells only on which side of the number the result lay.

Test [1] has as its target T1, human CRH receptor type 2 (human, UniProt Q13324 1-411).
T1 sequence (looked up): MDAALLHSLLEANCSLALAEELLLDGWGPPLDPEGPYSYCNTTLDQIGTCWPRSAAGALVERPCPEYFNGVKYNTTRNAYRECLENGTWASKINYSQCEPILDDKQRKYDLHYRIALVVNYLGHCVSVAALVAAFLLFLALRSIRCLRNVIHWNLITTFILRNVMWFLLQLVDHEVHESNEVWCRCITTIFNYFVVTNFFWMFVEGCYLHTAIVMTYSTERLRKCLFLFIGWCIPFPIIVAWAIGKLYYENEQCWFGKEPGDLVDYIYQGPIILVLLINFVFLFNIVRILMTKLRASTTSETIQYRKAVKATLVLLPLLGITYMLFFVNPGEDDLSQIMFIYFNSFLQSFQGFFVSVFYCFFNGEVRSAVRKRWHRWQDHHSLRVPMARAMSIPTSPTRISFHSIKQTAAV
As to the kind of experiment: cell-based or functional assay.

The target in test [2] is T1, human CRH receptor type 2. As to the kind of experiment: cell-based or functional assay. The source holds these as a separate data set.
The target in test [3] is T1, human CRH receptor type 2. As to the kind of experiment: cell-based or functional assay. The source holds these as a separate data set.
Test [4] addresses T1, human CRH receptor type 2. In words: radioligand competition, [125I]-anti-sauvagine-30, membranes of h-CRHR2 SK-N-MC cells. Background: Displacement assays read how much labelled ligand stays bound in the presence of the test substance.
Test [5] concerns the target T2, human CRH receptor type 1 (human, UniProt P34998 24-415).
T2 sequence (looked up): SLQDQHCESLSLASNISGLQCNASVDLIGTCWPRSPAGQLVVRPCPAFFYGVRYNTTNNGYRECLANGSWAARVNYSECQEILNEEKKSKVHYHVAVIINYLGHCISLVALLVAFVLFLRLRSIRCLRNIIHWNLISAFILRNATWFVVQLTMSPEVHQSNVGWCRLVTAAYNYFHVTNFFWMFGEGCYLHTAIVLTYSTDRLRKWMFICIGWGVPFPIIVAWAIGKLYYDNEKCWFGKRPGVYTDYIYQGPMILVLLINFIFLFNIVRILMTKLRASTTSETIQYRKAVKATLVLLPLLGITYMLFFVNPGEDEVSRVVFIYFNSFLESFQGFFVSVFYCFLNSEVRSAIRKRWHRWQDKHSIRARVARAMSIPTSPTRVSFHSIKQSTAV
In words: cell-based or functional assay.

Test [6] deals with T1, human CRH receptor type 2. As to the kind of experiment: radioligand competition, [125I]-anti-sauvagine-30, membranes of h-CRHR2 SK-N-MC cells; biphasic curve.
Test [7] has as its target T2, human CRH receptor type 1. In words: radioligand competition, [125I]-(Tyr0)-sauvagine, CRHR1 membrane assay.
In test [8] the target is T3, human CRH receptor type 1 (human), P34998.
T3 chain: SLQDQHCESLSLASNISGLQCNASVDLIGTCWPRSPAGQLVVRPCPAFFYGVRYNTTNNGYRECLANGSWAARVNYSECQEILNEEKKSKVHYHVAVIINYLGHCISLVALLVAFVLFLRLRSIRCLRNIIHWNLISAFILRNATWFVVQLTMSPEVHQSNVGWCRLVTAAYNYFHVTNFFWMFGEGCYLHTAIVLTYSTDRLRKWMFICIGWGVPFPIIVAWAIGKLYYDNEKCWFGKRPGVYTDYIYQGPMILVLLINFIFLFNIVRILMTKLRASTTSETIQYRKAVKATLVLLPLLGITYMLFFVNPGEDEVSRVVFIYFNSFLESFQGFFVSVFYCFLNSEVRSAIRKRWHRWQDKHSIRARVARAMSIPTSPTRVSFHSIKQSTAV
The test is described as above. Conditions: remark: other sources report otherwise.

On to TKFTLSLDVPTNIMNLLFNIAKAKNLRAQAAANAHLMAQI-OH [non-amidated h-SCP], for which, in test [1], the “potency against amidated h-SCP, cAMP” value is around 200 fold less potent. Also, in test [2], the “pA50, cAMP” value was 7.1 -log M and the “αmax, cAMP” value is 107 % of the maximum response to h-SCP.

As to TKFTLSLDVPTNIMNLLFNIAKAKNLRAQAAANAHLMAQI-NH2 (40 amino acids; also called h-SCP) [Human stresscopin with amidated C-terminus], in test [3], the A50, cAMP worked out at 0.4 nM; the control pA50, cAMP was 9.47 to 9.74 -log M; the pA50, cAMP is 9.4 -log M; the pA50, cAMP (one batch) was 9.41 -log M. The molecule further yielded a αmax, cAMP (% of the maximum response to h-SCP) in test [3] of 98.7. Besides, the αmax, cAMP in test [3] (scale: % of the maximum response obtained to h-SCP) worked out at 100. Further, the pKI in test [4] is 5.71 -log M. Further, the “pA50, cAMP” value in test [5] is < 5 -log M. Moreover, the pIC50 (low affinity state) in test [6] is 6.6 -log M. For the same molecule, the pKI in test [7] is 4.6 -log M.

As to FTLSLDVPTNIMNLLFNIAKAKNLRAQAAANAHLMAQI-NH2 [human Urocortin III], the pA50, cAMP in test [3] is 9.26 -log M; in test [5], < 5 -log M. The molecule also registered a αmax, cAMP in test [3] of 102. For the same molecule, the values for the pKI in test [4] and in test [8] were 6.49 -log M and 4.96 -log M, respectively.

B1: anti-sauvagine-30 (peptide)
peptide: FHLLRKMIEIEKQEKEKQQAANNRLLLDTI-NH2
notes: selective CRHR2 antagonist; also called SV30; CRHR antagonist peptide
Regarding B1, in test [3], the pA2 against h-SCP, cAMP was 7.82 -log M. The pKI in test [4] is 7.78 -log M; in test [7], 5.81 -log M.
